# Source: article PMC6773690, “Scribble co-operatively binds multiple α1D-adrenergic receptor C-terminal PDZ ligands” (Scientific Reports, 2019)
# Ends that are not written are not given here. BG‑782 = not defined here
# T1: α1-syntrophin (SNTA) PDZ domain (UniProt Q13424 87-170)
# T1 construct: α1-syntrophin (SNTA), PDZ domain; The methods elute GST proteins with glutathione; TEV cleavage is told only for crystallography; source: E. coli Rosetta (DE3), purified (glutathione agarose)
# T1 sequence (looked up): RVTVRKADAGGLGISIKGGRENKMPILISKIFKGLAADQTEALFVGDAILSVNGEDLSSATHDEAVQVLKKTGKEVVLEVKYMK
# T2: GST-SCRIB PDZ domain 2 (UniProt Q14160 862-950)
# T2 construct: scribble (SCRIB), PDZ domain 2 alone; also called SCRIB PDZ2; PDZ2; source: E. coli Rosetta (DE3), purified (glutathione agarose); not shown: GST, N-terminal, kept
# T2 sequence (looked up): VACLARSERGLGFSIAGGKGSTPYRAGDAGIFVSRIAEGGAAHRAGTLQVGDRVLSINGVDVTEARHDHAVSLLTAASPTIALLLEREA
# T3: GST-SCRIB PDZ domain 3 (UniProt Q14160 1004-1093)
# T3 construct: scribble (SCRIB), PDZ domain 3 alone; also called SCRIB PDZ3; PDZ3; source: E. coli Rosetta (DE3), purified (glutathione agarose); not shown: GST, N-terminal, kept
# T3 sequence (looked up): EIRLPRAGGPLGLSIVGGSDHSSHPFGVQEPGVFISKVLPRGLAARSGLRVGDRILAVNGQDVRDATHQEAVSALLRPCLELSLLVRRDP
# T4: calcium/calmodulin-dependent serine protein kinase (CASK) PDZ domain (UniProt O14936 489-564)
# T4 construct: calcium/calmodulin-dependent serine protein kinase (CASK), PDZ domain; The methods elute GST proteins with glutathione; TEV cleavage is told only for crystallography; source: E. coli Rosetta (DE3), purified (glutathione agarose)
# T4 sequence (looked up): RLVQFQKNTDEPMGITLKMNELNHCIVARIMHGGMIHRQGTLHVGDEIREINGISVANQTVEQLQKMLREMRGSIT
# B1: biotin-labeled peptide containing the last 20 amino acids of the α1D-adrenergic receptor C-terminus (peptide, UniProt P25100 553-572, looked up)
# peptide: GATCQAYELADYSNLRETDI
# modifications: also: biotin label (position not given here)
# notes: α1D-adrenergic receptor, distal (last) 20 amino acids of the C-terminus; also called α1D-CT; α1D-AR C-terminal PDZ ligand; source: synthetic peptide, bought: BioMatik
# Key:
# [1] = molecular target: biotin-labeled peptide containing the last 20 amino acids of the α1D-adrenergic receptor C-terminus (human) (UniProt P25100); test: BLI; Octet Red 96; 50 nM biotin-labeled α1D-CT peptide immobilised on streptavidin probes, then biocytin; serial dilutions of purified PDZ proteins as analytes until steady state; 20 mM Tris-HCl pH 8.0, 200 mM NaCl, 0.1% bovine serum albumin
# [2] = molecular target: GST-SCRIB ΔPDZ4 (C-terminal truncation mutant missing PDZ4); test: pull-down; SNAP GST-pulldown: 1 μM GST-tagged SCRIB proteins on glutathione agarose beads with serial dilutions of BG-782-labeled SNAP-α1D-CT, 1 h at 4 °C; washes 20 mM Tris-HCl pH 8.0, 200 mM NaCl, 0.05% NP-40; PAGE NIR
# [3] = molecular target: GST-SCRIB ΔPDZ34 (C-terminal truncation mutant missing PDZ3 and PDZ4); test: as above
# [4] = molecular target: T1, α1-syntrophin (SNTA) PDZ domain; test: BLI; Octet Red 96; 50 nM biotin-labeled α1D-CT peptide immobilised on streptavidin probes, then biocytin; serial dilutions of purified PDZ proteins as analytes until steady state; 20 mM Tris-HCl pH 8.0, 200 mM NaCl, 0.1% bovine serum albumin; conditions: both partners purified
# GST-SCRIB PDZ domain 4 = GST-SCRIB PDZ domain 4 (UniProt Q14160 992-1203); test: as above; conditions: both partners purified
# GST-SCRIB PDZ domain 2 = molecular target: T2, GST-SCRIB PDZ domain 2; test: as above; conditions: both partners purified
# GST-SCRIB PDZ domain 3 = molecular target: T3, GST-SCRIB PDZ domain 3; test: as above; conditions: both partners purified
# [5] = molecular target: T4, calcium/calmodulin-dependent serine …; test: as above; conditions: both partners purified
# GST-SCRIB PDZ domain 1 = molecular target: T5, GST-SCRIB PDZ domain 1 (UniProt Q14160 728-815); test: as above; conditions: both partners purified
# T5 construct: scribble (SCRIB), PDZ domain 1 alone; also called SCRIB PDZ1; PDZ1; source: E. coli Rosetta (DE3), purified (glutathione agarose); not shown: GST, N-terminal, kept
# T5 sequence (Q14160 728-815): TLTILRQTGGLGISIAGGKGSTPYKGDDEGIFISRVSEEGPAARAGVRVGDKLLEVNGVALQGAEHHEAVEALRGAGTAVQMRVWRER
# [6] = molecular target: GST-SCRIB containing all 4 PDZ domains (WT); test: BLI; reverse BLI: GST-SCRIB immobilised on anti-GST probes, serial dilutions of biotin-labeled α1D-CT as analyte; 20 mM Tris-HCl pH 8.0, 200 mM NaCl, 0.1% bovine serum albumin
molecule,measurement,setting,value
GST-SCRIB ΔPDZ34 (C-terminal truncation mutant missing PDZ3 and PDZ4) (domain or fragment),Kd,[1],160 nM
GST-SCRIB H1170A (PDZ4 mutation in SCRIB with all 4 PDZ domains) (domain or fragment),Kd,[1],320 nM
GST-SCRIB containing all 4 PDZ domains (WT) (domain or fragment),Kd,[1],70 nM
SCRIB PDZ3 and PDZ4 (PDZ34) (domain or fragment),Kd,[1],340 nM
GST-SCRIB H793A (PDZ1 mutation in SCRIB with all 4 PDZ domains) (domain or fragment),Kd,[1],7340 nM
human discs large MAGUK scaffold protein 1 (DLG1) PDZ domains (domain or fragment),Kd,[1],790 nM
GST-SCRIB ΔPDZ4 (C-terminal truncation mutant missing PDZ4) (domain or fragment),Kd,[1],140 nM
{BG‑782-SNAP tag}-QAYELADYSNLRETDI (not fully specified; reading uncertain),"maximal binding response, % of SCRIB WT (% of SCRIB WT)",[2],48
same,"maximal binding response, % of SCRIB WT (% of SCRIB WT)",[3],34
B1,Kd,[4],560 nM
same,Kd,GST-SCRIB PDZ domain 4,1140 nM
same,Kd,GST-SCRIB PDZ domain 2,14900 nM
same,Kd,GST-SCRIB PDZ domain 3,44200 nM
same,Kd,[5],1150 nM
same,Kd,GST-SCRIB PDZ domain 1,1930 nM
same,Kd,[6],76 nM
